Experimental data published in paper PMC6146036 (Frontiers in Molecular Neuroscience, 2018).
“Also recorded” adds a separate entry of the source.

Key:
[1] = Thioflavin-T (ThT) fluorescence Aβ fibrillization assay; format: physicochemical; settings: 800 ng/mL Aβ40, 100 ng/mL Aβ42; ThT 1 μM, pH 7.4, 37°C overnight, ex 450/em 485 nm, ChAT, choline and ACoA as in activity assay; method: quadruplicate, legend: mean ± SEM of three readings
Description: The ThT fluorescence assay was used to ensure that the Aβ peptides remained soluble during the aforementioned experimental setups. The ThT fluorescence assay was performed in 96-well black plates with a transparent bottom, as described before ([Kumar et al., 2016b]). […] The concentration of ChAT, choline, and ACoA were as used in the aforementioned experiments. To each well, 100 μL/well of a 1 μM ThT solution was added, the plate was then carefully sealed and the changes in fluorescence were monitored from the bottom of the wells, at an emission and excitation wavelengths of 485 nm and 450 nm, respectively, at 15-min intervals at 37°C for an overnight duration, using a microplate spectrophotometer reader (Infinite M1000, Tecan). Each Aβ peptide concentration was run in quadruplicate. Several wells with Aβ alone were also included as control, and wells without ThT were used as negative controls.

[2] = biological target: T1, human recombinant choline acetyltransferase (rChAT) (Homo sapiens, UniProt P28329); test: Fluorometric in vitro ChAT activity assay (human rChAT, CPM read-out); format: biochemical; settings: for direction of effect on ChAT activity at high concentrations: 0 to 3,800 ng/mL (0–833.3 nM), 1:2 dilutions, two independent experiments, Figure 2C; for difference in slopes of ChAT rate vs gelatin control: 6.4 ng/mL Aβ40 or 0.16 ng/mL Aβ42 (F = 21, p < 0.0001), linear regression; for effect on increases in ChAT activity at the higher Aβ concentration points: 160 and 800 ng/mL Aβ40, 100 ng/mL Aβ42, activity still higher than baseline; for concentration range giving the highest level of ChAT activation in the mixture: Aβ40:Aβ42 10:1 mixture, Figure 5C, with or without gelatin; for effect on ChAT activity at physiological concentrations: CSF concentrations ∼4–6.4 ng/mL Aβ40, ∼0.4–0.8 ng/mL Aβ42, Figures 2A,B
T1 construct: made in house; host or cells: E. coli BL21 Rosetta2
T1 sequence (P28329 1-630 isoform P28329-3): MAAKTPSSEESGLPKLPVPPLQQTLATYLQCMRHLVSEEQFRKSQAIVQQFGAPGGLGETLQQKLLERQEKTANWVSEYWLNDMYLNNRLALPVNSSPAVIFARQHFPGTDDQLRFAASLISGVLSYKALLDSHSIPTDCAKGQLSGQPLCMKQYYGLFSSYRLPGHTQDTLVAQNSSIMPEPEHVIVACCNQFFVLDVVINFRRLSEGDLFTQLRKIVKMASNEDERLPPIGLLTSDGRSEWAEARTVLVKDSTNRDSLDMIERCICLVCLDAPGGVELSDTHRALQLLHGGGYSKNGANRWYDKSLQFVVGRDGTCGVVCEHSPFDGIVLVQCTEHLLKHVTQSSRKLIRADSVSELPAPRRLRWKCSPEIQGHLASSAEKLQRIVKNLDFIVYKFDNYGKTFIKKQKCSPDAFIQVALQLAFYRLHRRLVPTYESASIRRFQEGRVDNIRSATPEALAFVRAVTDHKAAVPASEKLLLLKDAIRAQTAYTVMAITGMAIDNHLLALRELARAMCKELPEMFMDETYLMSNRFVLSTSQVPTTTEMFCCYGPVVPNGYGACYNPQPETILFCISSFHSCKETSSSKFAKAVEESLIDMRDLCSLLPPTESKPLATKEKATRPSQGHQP
Description: Recombinant ChAT was purified as described previously ([Kumar et al., 2016a], [2017]). Briefly, DYT media was inoculated with an O/N culture of E. coli BL21 Rosetta2 transformed with pProExHTa-ChAT (a gift from Dr. Brian Shilton, Department of Biochemistry, University of Western Ontario, London, ON, Canada). The bacteria were grown in shaking incubator at 37°C with 200 rpm until the optical density at 600 nm reached 0.5. After which, 0.5 mM IPTG was added and His6-ChAT was expressed for approximately 16 h at 18°C. Next, the cells were harvested and His6-ChAT was purified with “Ni-NTA fast start Kit” (Qiagen) following the manufacturer’s instructions. The elution buffer was exchanged to storage buffer [10 mM Tris pH 7.4, 500 mM NaCl, 10% (v/v) glycerol] using 30 kDa molecular weight cutoff Amicon Ultra concentrators (Merck Millipore). The purity and molecular weight of the protein were determined using SDS-PAGE electrophoresis. The total protein concentration was determined using DC Protein Assay (Bio-Rad). The purified protein was aliquoted and stored at −80°C.
ChAT activity was measured with our newly developed robust in-house fluorometric assay, using human rChAT protein. […] The reagents, choline chloride (C7017), acetyl coenzyme-A (ACoA, A2181), 7-diethylamino-3-(4-maleimidophenyl)-4-methylcoumarin (CPM) (C1484), thioflavin-T (ThT; T3516), and gelatin (G7041) were purchased from Sigma-Aldrich (St. Louis, MO, United States).
Then, 50 μL of a cocktail-A [dilution buffer containing 10 μM ACoA (final concentration) and 15 μM CPM (final concentration)] was added to each well. Immediately after adding the cocktail-A, the changes in fluorescence were monitored kinetically at 479 nm emission wavelength after exciting at 390 nm wavelength, at 1- to 2-min intervals for 15–20 min using a microplate spectrophotometer reader (Infinite M1000, Tecan).
Each Aβ peptide dilution was run in triplicates. On each 96-wells plate, several enzyme wells without Aβ were also included as positive controls and for estimating the activation level by Aβ peptides. Negative controls were wells without enzyme, but with all the other above-mentioned reagents. The kinetic rate of enzyme activity (as ΔRFU/min slope data) was calculated and processed using the GraphPad Prism 7 analysis software. The actual rate values as well as statistical analysis values (P-values) of ChAT activity at different Aβ concentrations or alone were calculated after fitting the curve with the linear regression function in the GraphPad Prism 7. […]

[3] = system: cultured cholinergic neurons; settings: high nanomolar concentration; ref Pedersen et al., 1996; Hoshi et al., 1997; Kar et al., 1998; Nunes-Tavares et al., 2012; cited from earlier work
Source text: The functional relationship between Aβ and the cholinergic system, especially ChAT, is quite complex and still need further exploration to gain a better understanding of Aβ native function and role in AD pathology.

rate of ChAT activity in the presence of Aβ40 ([2]; 6.4 ng/mL Aβ40, rChAT 0.146 μg/mL, 150 μM choline chloride, 10 μM ACoA, 15 μM CPM, 30 min room temperature, pH 7.4, no gelatin, mean ± SD of ≥2 readings, control (ChAT alone) 26.06 ± 1.07, F = 33.21, p < 0.0001)	difference in elevations or intercepts of ChAT rate vs gelatin control ([2]; 1 mg/mL gelatin, 6.4 ng/mL Aβ40, F = 9.2, p < 0.004)	difference in slopes of ChAT rate vs gelatin control ([2]; 1 mg/mL gelatin)	effect on increases in ChAT activity at the higher Aβ concentration points [2]	concentration range giving the highest level of ChAT activation in the mixture [2]	concentration at which the increase in ChAT activity reaches a plateau ([2]; no gelatin, dilution series 0–800 ng/mL Aβ40, 0–100 ng/mL Aβ42)	rate of ChAT activity in the presence of Aβ42 ([2]; 0.16 ng/mL Aβ42, rChAT 0.146 μg/mL, 150 μM choline chloride, 10 μM ACoA, 15 μM CPM, 30 min room temperature, pH 7.4, no gelatin, mean ± SD of ≥2 readings, control (ChAT alone) 53.8 ± 1.11, F = 98.5, p < 0.0001)	change in ChAT activity by gelatin ([2]; gelatin 0.5 to 4 mg/mL, Figure 4A, mean ± SD of four readings)	Substance	difference in ThT fluorescence intensity vs control wells (no Aβ) [1]	direction of effect on ChAT activity at high concentrations [2]	effect on ChAT activity at physiological concentrations ([2]; no gelatin)	overall effect on ChAT across experiments ([2]; some experiments vs others)	reduction in ACh synthesis [3]	effect of gelatin on ChAT activity ([2]; gelatin 0 to 4 mg/mL, mean ± SD of four readings)
36.5 ± 1.48 ΔRFU/min	significant	not statistically significant	started to decline	1.3 to 6.4 ng/mL	~32 ng/mL			Aβ40: amyloid-β peptide, recombinant, purchased from rPeptide (Cat no. A-1153-1)	no significant differences in the ThT fluorescence intensity	inhibition of ChAT rather than activation	able to increase the activity of ChAT at physiological concentrations	inhibited ChAT in some experiments, while in others it enhanced its activity		
		statistically highly significant	started to decline	0.12 to 0.64 ng/mL		71.6 ± 1.41 ΔRFU/min		Aβ42: amyloid-β peptide, recombinant, purchased from rPeptide (Cat no. A-1166-1)	no significant differences in the ThT fluorescence intensity	activation of ChAT	able to increase the activity of ChAT at physiological concentrations		40–50%	
							−5% to +9	gelatin [reference compound]						slight increase in the rate of ChAT activity within the 0.5–2 mg/mL gelatin concentration range; also recorded: no significant effect on ChAT activity
